US20230059489A1 (Pfizer, published 2023)

T1: human FLT3 (hFLT3) (human, UniProt P36888 27-543)
T1 construct: also called huFlt3; Fms-Like Tyrosine Kinase 3
T1 sequence (looked up): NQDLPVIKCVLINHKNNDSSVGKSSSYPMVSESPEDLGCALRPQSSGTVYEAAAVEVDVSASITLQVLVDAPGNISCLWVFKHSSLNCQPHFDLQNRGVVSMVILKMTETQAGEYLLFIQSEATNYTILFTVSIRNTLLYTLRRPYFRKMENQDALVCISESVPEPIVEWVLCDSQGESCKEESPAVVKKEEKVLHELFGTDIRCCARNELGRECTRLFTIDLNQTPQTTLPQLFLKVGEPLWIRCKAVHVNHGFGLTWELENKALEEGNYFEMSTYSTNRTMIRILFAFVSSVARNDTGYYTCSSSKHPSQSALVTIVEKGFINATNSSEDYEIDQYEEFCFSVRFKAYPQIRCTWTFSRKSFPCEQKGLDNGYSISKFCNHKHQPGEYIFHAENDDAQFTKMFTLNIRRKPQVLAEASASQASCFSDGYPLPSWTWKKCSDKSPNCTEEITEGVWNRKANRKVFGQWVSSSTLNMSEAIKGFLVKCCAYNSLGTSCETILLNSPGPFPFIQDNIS

T2: mouse FLT3 (mFlt3) (mouse (printed as mFlt3), UniProt Q00342 28-544, limits assumed)
T2 construct: Construct not described
T2 sequence (looked up): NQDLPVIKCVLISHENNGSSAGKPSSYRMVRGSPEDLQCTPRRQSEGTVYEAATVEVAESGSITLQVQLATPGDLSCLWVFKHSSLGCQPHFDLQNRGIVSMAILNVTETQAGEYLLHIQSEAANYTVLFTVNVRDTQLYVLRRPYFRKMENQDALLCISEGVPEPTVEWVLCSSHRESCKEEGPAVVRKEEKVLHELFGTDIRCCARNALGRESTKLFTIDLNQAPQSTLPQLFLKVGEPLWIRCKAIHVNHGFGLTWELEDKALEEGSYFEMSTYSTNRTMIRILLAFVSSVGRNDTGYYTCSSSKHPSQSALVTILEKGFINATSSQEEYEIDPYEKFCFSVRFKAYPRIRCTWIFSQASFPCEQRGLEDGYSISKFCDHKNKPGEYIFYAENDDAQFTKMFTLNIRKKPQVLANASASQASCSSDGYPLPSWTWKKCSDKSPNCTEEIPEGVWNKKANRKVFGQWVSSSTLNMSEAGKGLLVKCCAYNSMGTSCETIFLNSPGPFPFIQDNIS


What was measured:
[1] = target: T1, human FLT3 (hFLT3); experiment: SPR (Biacore T200), 37 C; IgG captured on anti-human Fc, hFLT3 as analyte
Protocol: All experiments were performed on a Biacore T200 surface Plasmon resonance biosensor (GE Lifesciences, Piscataway N.J.).
The sensor chip preparation was performed at 25° C. with a running buffer of 10 mM HEPES, 150 mM NaCl, 0.05% (v/v) Tween-20, pH 7.4. An anti-human Fc sensor chip was made by activating all flow cells of a Biacore CM4 sensor chip with a 1:1 (v/v) mixture of 400 mM EDC and 100 mM NHS for 7 minutes, at a flow rate of 10 μL/min. An anti-human Fc reagent (Goat Anti-Human IgG Fc, Southern Biotech Catalog #2081-01) was diluted to 30 μg/mL in 10 mM Sodium Acetate pH 4.5 and injected on all flow cells for 7 minutes at 20 μL/min. All flow cells were blocked with 100 mM ethylenediamine in 150 mM Borate buffer pH 8.5 for 7 minutes at 10 μL/min.
The experiments were performed at 37° C. using a running buffer of 10 mM HEPES, 150 mM NaCl, 0.05% (v/v) Tween-20, pH 7.4, 1 mg/mL BSA. FLT3 antibodies were captured from undiluted supernatants onto downstream flow cells (flow cells 2, 3 and 4) at a flow rate of 10 μL/min for 1 minute. Different antibodies were captured on each flow cell. Flow cell 1 was used as a reference surface. Following capture of FLT3 antibodies, analyte (buffer, hFLT3) was injected at 30 μL/min on all flow cells for two minutes. After the analyte injection, dissociation was monitored for 10 minutes followed by regeneration of all flow cells with three 1-minute injections of 75 mM Phosphoric Acid. For each captured FLT3 antibody, the following analyte injections were performed: buffer, 11 nM hFLT3, 33 nM hFLT3, 100 nM hFLT3 and 300 nM hFLT3. Buffer cycles were collected for each captured FLT3 antibody for double-referencing purposes (double-referencing as described in Myszka, D. G. Improving biosensor analysis. J. Mol. Recognit. 12, 279-284 (1999)). The double-referenced sensorgrams were fit globally to a simple 1:1 Langmuir with mass transport binding model.

[2] = target: T2, mouse FLT3 (mFlt3); experiment: SPR, Table 6, IgG format, mFlt3 column; set-up for mFlt3 not described

Binder | Kd [1] | koff [1] | kon [1] | t1/2 [1] | Kd [2]
P4F6 (IgG format) (antibody, V domains shown, IgG format, captured by anti-human Fc) VH: QVQLVQSGAEVKKPGSSVKVSCKASGGTFGSYGISWVRQAPGQGLEWMGGIIPIFGTVTYAQKFQGRVTITADESTRTAYMELSSLRSEDTAVYYCARDSWSGATGASDTWGQGTLVTVSS VL: not shown | 25 nM | 0.0035 s⁻¹ | 140000 M⁻¹ s⁻¹ | 3.3 min | 36.1 nM
P5A3 (IgG format) (antibody, V domains shown, IgG format, captured by anti-human Fc) VH: QVQLVQSGAEVKKPGSSVKVSCKASGGTFSSYYIGWVRQAPGQGLEWMGGIIPWFGTANYAQKFQGRVTITADKSTNTAYMELSSLRSEDTAVYYCAADHHDSPSGYTSGGFDVWGQGTLVTVSS VL: QSALTQPASVSGSPGQSITISCTGTSSDVGGYNYVSWYQQHPGKAPKLMIYEVSKRPSGVPDRFSGSKSGNTASLTVSGLQAEDEADYYCSSYAGSNTVVFGGGTKLTVL | 102 nM | 0.01 s⁻¹ | 98000 M⁻¹ s⁻¹ | 1.2 min | 19.3 nM
P7F9 (IgG format) (antibody, V domains shown, IgG format, captured by anti-human Fc) VH: EVQLLESGGGLVQPGGSLRLSCAASGFTFSSYAMSWVRQAPGKGLEWVSAIGGSGGSTYYADSVKGRFTISRDNSKNTLYLQMNSLRAEDTAMYYCARDYYAFSDPAYGGMDVWGQGTLVTVSS VL: NFMLTQPHSVSESPGKTVTISCTRSSGSIASNYVQWYQQKPGQAPVLVVYDDSDRPSGIPERFSGSNSGNTATLTISRVEAGDEADYYCQVWDSSSDHWVFGGGTKLTVL | 12 nM | 0.0013 s⁻¹ | 110000 M⁻¹ s⁻¹ | 8.9 min | 13.8 nM

Binders with a lower Kd [1], results first:

Kd [1] | koff [1] | kon [1] | t1/2 [1] | Kd [2] | Binder
2 nM | 0.0018 s⁻¹ | 990000 M⁻¹ s⁻¹ | 6.6 min | 0.9 nM | P7H3 (IgG format) (antibody, V domains shown, IgG format, captured by anti-human Fc) VH: EVQLLESGGGLVQPGGSLRLSCAASGFTFSSYAMHWVRQAPGKGLEWVSAISGSGGSTYYADSVKGRFTISRDNSKNTLYLQMNSLRAEDTAVYYCARGTRWWWGDAFDHWGQGTLVTVSS VL: QSVLTQPPSVSVAPGKTARITCGGNNIGSKSVHWYQQKPGQAPVLVIYYDSDRPSGIPERFSGSNSGNTATLTISRVEAGDEADYYCQVWDSSTAWVFGGGTKLTVL
11 nM | 0.00047 s⁻¹ | 42000 M⁻¹ s⁻¹ | 24.4 min | 1.5 nM | P9B5 (IgG format) (antibody, V domains shown, IgG format, captured by anti-human Fc) VH: EVQLLESGGGLVQPGGSLRLSCAASGFIFASYAMSWVRQAPGKGLEWVSEISSSGGSTTYADSVKGRFTISRDNSKNTLYLQMNSLRAEDTAVYYCARDRVMAGLGYDPFDYWGQGTLVTVSS VL: not shown
7.7 nM | 0.0012 s⁻¹ | 160000 M⁻¹ s⁻¹ | 9.3 min | 402 nM | P4C7 (IgG format) (antibody, V domains shown, IgG format, captured by anti-human Fc) VH: QVQLVQSGAEVKKPGSSVKVSCKASGGTFSSYTISWVRQAPGQGLEWMGGIIPAFGIANYAQKFQGRVTITADKSTSTAYMELSSLRSEDTAVYYCAKGGSYSLDYFDIWGQGTLVTVSS VL: EIVLTQSPGTLSLSPGERATLSCRASQYVSASLLAWYQQKPGQAPRLLIYGASTRATGIPDRFSGSGSGTDFTLTISRLEPEDFAVYYCQQYARSSTFGQGTKVEIK
